In patent EP4703384A1:

What was measured:
[1] = target: human GPRC5D protein (human) (UniProt Q9NZD1); experiment: FACS, hybridoma subclone supernatant on NCI-H929 cells
[2] = target: CHO-K1-hGPRC5D^hi cells, CHO-K1-cynoGPRC5D cells, and/or CHO-K1-murineGPRC5D cells; experiment: cell ELISA (OD450), subclone supernatant on fixed transfected CHO-K1 cells against CHO-K1

Sequence of human GPRC5D protein (human) (Q9NZD1 whole entry): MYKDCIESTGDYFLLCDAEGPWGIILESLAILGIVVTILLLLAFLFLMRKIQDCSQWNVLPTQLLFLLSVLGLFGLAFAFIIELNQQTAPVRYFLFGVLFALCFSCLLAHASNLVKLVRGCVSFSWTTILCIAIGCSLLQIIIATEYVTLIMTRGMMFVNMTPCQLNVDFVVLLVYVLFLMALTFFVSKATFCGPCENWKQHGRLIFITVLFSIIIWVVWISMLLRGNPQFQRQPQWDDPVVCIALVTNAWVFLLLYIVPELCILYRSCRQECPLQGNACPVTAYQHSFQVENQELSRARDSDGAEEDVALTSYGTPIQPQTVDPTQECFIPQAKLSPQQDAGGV

| MFI [1] [MFI] | fold difference in absorbance as compared to the control cell CHO-K1 [2] [fold] | Binder |
| --- | --- | --- |
| 59300 | > 2 | mu-169 (antibody, V domains shown) VH: EVKLVESGGGLVKPGASLKLSCAASGFTFSNYGMSWVRQTSDKRLEWVASISSGGGRIYYPDNVKGRFTISRENAKNTLYLQMSSLKSEDTALYYCTRHAMDNWGQGTSVIVSS VL: QIVLTQSPAIMSASPGEKVTMTCSASSSVSNMYWYQQKSGTSPKRWIYDTSKLASGVPARFSGSGSGTSYSLTISSMEAEDASTYYCQQWSSNPLTFGAGTTLELK |
| 15700 | > 2 | mu-128 (antibody, V domains shown) VH: DVQLVESGGGLVQPGGSRKVSCAASGFTFSSFGMHWVRQAPEKGLEWVAYISRGSSTIYYADTVKGRFTISRDNPKNTLFLQMTSLRSEDTAMYYCARSGYGSSSYYFDYWGQGTTLTVSS VL: ENVLTQSPAIMSASPREKVTMTCRASSSIRSSYLHWYQQKSGASPKLWIYSTSNLASGVPARFSGSGSGTSYSLTISSVEAEDAATYYCQQFSGYPLTFGGGTKLEIK |
| 12800 | > 2 | mu-131 (antibody, V domains shown) VH: EVQLQQSGPELVKPGASVKMSCKASGYTFTNYVMHWVKQKPGQGLEWIGYFNPYNDGTNYNEKFKGKATLTSDKSSNTAYMELSSLTSEDSAVYYCARGGVRRYFDVWGAGTTVTVSS VL: DIQMTQSPSSLSASLGERVSLTCRASQDIGSNLNWLQLGPDGTIKRLIYATFSLDSGVPKRFSGSRSGSDYSLTISSLESEDFVDYYCQQYANFPPTFGGGTKLEIK |
| 11900 | > 2 | mu-89 (antibody, V domains shown) VH: EVQLVESGGDLVKPGGSLKLSCAASGFTFSSYGMSWVRQTPDKRLEWVATISSGGSYTYYPDSVKGRFTFSRDNAKNTLYLQMSSLKSEDTAMYYCVRQALRYHMDSWGQGTSVTVSS VL: DIVMTQSQKFMSTSVGDRVSVTCKASQNVGTNVAWYQQKPGQSPKALIYSASYRYSGVPDRFTGSGSGTDFTLTISNVQSEDLADFFCQQYYSYPWTFGGGTKLEIK |
| 13200 | > 2 | mu-105 (antibody, V domains shown) VH: EVQLQQSGPELVKPGASVKMSCKASGYTFTDYYMNWVKQSHGKSLEWIGYIYPNNGGTGYNQRFKGKATLTADKSSSTAYMELRSLTSEDSAVYYCARWGGTRLGYYAMDYWGQGTSVTVSS VL: DIVMTQSQKFMSTSVGDRVSVTCKASQNVGTNVVWYQQKPGQSPKLLIYWASTRHTGVPDRFTGSGSGTDFTLTISNVQSEDLADYFCQQYSRYPYTFGGGTKLEIK |
